Columns and labels:
[1] = target: Im9 (Escherichia coli) (UniProt P13479); conditions: cited from earlier work
[2] = target: DNase domain of colicin E9, E9 (S3C) (E. coli); test: dynamic force spectroscopy (AFM)

k0F off (outer barrier) [2] [s⁻¹]	Molecule	Kd [1] [pM]
	Colicin E9 DNase domain (from UniProt P09883)	0.016
7.6	Im2 (D33A), pulled from residue 81 (natural protein) MELKHSISDYTEAEFLEFVKKIARAEGATEEDANKLVREFERLTEHPDGSDLIYYPRDDREDSPEGIVKEIKEWRAANGKCGFKQG	

Reference: article PMC3576412
